Residue numbers refer to the chain shown, from its start.

Consider 49 molecules from patent US20100292083A1 (Ablynx, published 2010).

The chains are these.
T1: human IL6R (human, UniProt P08887 20-358, limits assumed)
T1 construct: Antigen of the Biacore experiments; the construct is not described (biotinylated IL6R from Peprotech was used for the selections)
T1 sequence (looked up): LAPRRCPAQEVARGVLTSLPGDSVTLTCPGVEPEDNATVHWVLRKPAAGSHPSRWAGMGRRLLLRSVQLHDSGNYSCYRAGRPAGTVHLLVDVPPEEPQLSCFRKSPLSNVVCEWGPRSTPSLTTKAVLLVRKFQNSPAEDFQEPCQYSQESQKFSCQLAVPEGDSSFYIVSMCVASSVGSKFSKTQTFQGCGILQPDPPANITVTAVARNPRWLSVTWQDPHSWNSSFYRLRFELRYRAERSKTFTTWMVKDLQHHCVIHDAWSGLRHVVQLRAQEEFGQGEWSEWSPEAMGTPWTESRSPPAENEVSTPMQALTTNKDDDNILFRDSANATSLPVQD

B1: 32C9PMP2_E6 (VHH, name in Kabat numbering)
VHH: EVQLVESGGGLVQPGGSLRLSCAASGFTFSDYDIGWFRQAPGKEREGVSGISSSDGNTYYADSVKGRFTISRDNAKNTVYLQMNSLKAEDTAVYYCAREPPDSSWYLDGSPEFFKYWGQGTLVTVSS
notes: Humanized 32C9 variant
B2: 32C9PMP1_G3 (VHH, name in Kabat numbering)
VHH: B1 VHH with E44G, V79L, K87R, A88P, L122Q
notes: Humanized 32C9 variant
B3: 32C9PMP1_H8 (VHH, name in Kabat numbering)
VHH: B1 VHH with P14A, S30D, F37V, E44G, V79L, K87R, A88P
notes: Humanized 32C9 variant
B4: 32C9PMP2_F2 (VHH, name in Kabat numbering)
VHH: B1 VHH with P14A, S30D, F37V, G47W, R72S, V79L, K87R, A88P
notes: Humanized 32C9 variant
B5: 32C9PMP1_G9 (VHH, name in Kabat numbering)
VHH: B1 VHH with S30D, F37V, R45L, R72S
notes: Humanized 32C9 variant
B6: 32C9PMP2_F5 (VHH, name in Kabat numbering)
VHH: B1 VHH with S30D, G47W, R72S, V79L
notes: Humanized 32C9 variant
B7: 32C9PMP2_B4 (VHH, name in Kabat numbering)
VHH: B1 VHH with S30D, R45L, R72S, K87R, A88P, L122Q
notes: Humanized 32C9 variant
B8: 32C9PMP2_E7 (VHH, name in Kabat numbering)
VHH: B1 VHH with P14A, G47W, V79L, K87R, A88P
notes: Humanized 32C9 variant
B9: 32C9PMP1_H1 (VHH, name in Kabat numbering)
VHH: B1 VHH with F37V, E44G, L122Q
notes: Humanized 32C9 variant
B10: 32C9PMP2_C12 (VHH, name in Kabat numbering)
VHH: B1 VHH with P14A, S30D, F37V, G47W, R72S, V79L
notes: Humanized 32C9 variant
B11: 32C9PMP2_D8 (VHH, name in Kabat numbering)
VHH: B1 VHH with L122Q
notes: Humanized 32C9 variant
B12: 32C9PMP1_E2 (VHH, name in Kabat numbering)
VHH: B1 VHH with P14A, F37V, E44G, V79L
notes: Humanized 32C9 variant
B13: 32C9PMP2_D5 (VHH, name in Kabat numbering)
VHH: B1 VHH with S30D, F37V, R45L
notes: Humanized 32C9 variant
B14: 32C9PMP2_B7 (VHH, name in Kabat numbering)
VHH: B1 VHH with P14A, E44G, V79L
notes: Humanized 32C9 variant
B15: 32C9PMP2_D9 (VHH, name in Kabat numbering)
VHH: B1 VHH with E44G, R72S, K87R, A88P
notes: Humanized 32C9 variant
B16: 32C9PMP2_A10 (VHH, name in Kabat numbering)
VHH: B1 VHH with P14A, F37V, E44G, V79L, L122Q
notes: Humanized 32C9 variant
B17: 32C9PMP1_G8 (VHH, name in Kabat numbering)
VHH: B1 VHH with E44G, R72S
notes: Humanized 32C9 variant
B18: 32C9PMP2_C10 (VHH, name in Kabat numbering)
VHH: B1 VHH with S30D, F37V, E44G, R72S, V79L
notes: Humanized 32C9 variant
B19: 32C9PMP2_A5 (VHH, name in Kabat numbering)
VHH: B1 VHH with S30D, F37V, E44G, R72S, K87R, A88P
notes: Humanized 32C9 variant
B20: 32C9PMP1_F9 (VHH, name in Kabat numbering)
VHH: B1 VHH with G47W
notes: Humanized 32C9 variant
B21: 32C9PMP2_C4 (VHH, name in Kabat numbering)
VHH: B1 VHH with P14A, S30D, G47W, R72S
notes: Humanized 32C9 variant
B22: 32C9PMP1_H6 (VHH, name in Kabat numbering)
VHH: B1 VHH with S30D, R45L, V79L, L122Q
notes: Humanized 32C9 variant
B23: 32C9PMP1_A1 (VHH, name in Kabat numbering)
VHH: B1 VHH with P14A, F37V, G47W, R72S, V79L, K87R, A88P, R98A
notes: Humanized 32C9 variant
B24: 32C9PMP2_A12 (VHH, name in Kabat numbering)
VHH: B1 VHH with P14A, S30D, R45L, R72S, R98A, L122Q
notes: Humanized 32C9 variant
B25: 32C9PMP2_C6 (VHH, name in Kabat numbering)
VHH: B1 VHH with P14A, F37V, E44G, G47W, R72S, V79L, K87R, A88P, R98A, L122Q
notes: Humanized 32C9 variant
B26: 32C9PMP2_E2 (VHH, name in Kabat numbering)
VHH: B1 VHH with R45L, R72S, V79L, R98A, L122Q
notes: Humanized 32C9 variant
B27: 32C9PMP1_H4 (VHH, name in Kabat numbering)
VHH: B1 VHH with E44G, R72S, V79L, R98A, L122Q
notes: Humanized 32C9 variant
B28: 32C9PMP1_B3 (VHH, name in Kabat numbering)
VHH: B1 VHH with S30D, F37V, R45L, R72S, V79L, K87R, A88P, R98A
notes: Humanized 32C9 variant
B29: 32C9PMP1_C5 (VHH, name in Kabat numbering)
VHH: B1 VHH with P14A, S30D, F37V, R45L, R72S, K87R, A88P, R98A
notes: Humanized 32C9 variant
B30: 32C9PMP1_E1 (VHH, name in Kabat numbering)
VHH: B1 VHH with P14A, E44G, V79L, R98A
notes: Humanized 32C9 variant
B31: 32C9PMP2_F12 (VHH, name in Kabat numbering)
VHH: B1 VHH with P14A, S30D, F37V, E44G, R72S, V79L, K87R, A88P, R98A
notes: Humanized 32C9 variant
B32: 32C9PMP2_E1 (VHH, name in Kabat numbering)
VHH: B1 VHH with S30D, R45L, R72S, K87R, A88P, R98A, L122Q
notes: Humanized 32C9 variant
B33: 32C9PMP1_B5 (VHH, name in Kabat numbering)
VHH: B1 VHH with G47W, V79L, K87R, A88P, R98A, L122Q
notes: Humanized 32C9 variant
B34: 32C9PMP2_G4 (VHH, name in Kabat numbering)
VHH: B1 VHH with P14A, S30D, F37V, E44G, V79L, R98A, L122Q
notes: Humanized 32C9 variant
B35: 32C9PMP2_C3 (VHH, name in Kabat numbering)
VHH: B1 VHH with P14A, F37V, G47W, R72S, V79L, R98A, L122Q
notes: Humanized 32C9 variant
B36: 32C9PMP1_G5 (VHH, name in Kabat numbering)
VHH: B1 VHH with S30D, R45L, V79L, K87R, A88P, R98A
notes: Humanized 32C9 variant
B37: 32C9PMP2_F3 (VHH, name in Kabat numbering)
VHH: B1 VHH with P14A, S30D, F37V, E44G, R72S, R98A
notes: Humanized 32C9 variant
B38: 32C9PMP2_A7 (VHH, name in Kabat numbering)
VHH: B1 VHH with P14A, F37V, E44G, V79L, R98A
notes: Humanized 32C9 variant
B39: 32C9PMP2_D10 (VHH, name in Kabat numbering)
VHH: B1 VHH with F37V, R45L, R72S, K87R, A88P, R98A
notes: Humanized 32C9 variant
B40: 32C9PMP1_D4 (VHH, name in Kabat numbering)
VHH: B1 VHH with P14A, E44G, R72S, V79L, R98A, L122Q
notes: Humanized 32C9 variant
B41: 32C9PMP2_B5 (VHH, name in Kabat numbering)
VHH: B1 VHH with P14A, F37V, E44G, R72S, K87R, A88P, R98A
notes: Humanized 32C9 variant
B42: 32C9PMP1_E6 (VHH, name in Kabat numbering)
VHH: B1 VHH with P14A, F37V, E44G, R72S, R98A
notes: Humanized 32C9 variant
B43: 32C9PMP2_B12 (VHH, name in Kabat numbering)
VHH: B1 VHH with G47W, R72S, R98A, L122Q
notes: Humanized 32C9 variant
B44: 32C9PMP1_E7 (VHH, name in Kabat numbering)
VHH: B1 VHH with P14A, S30D, E44G, R72S, V79L, R98A
notes: Humanized 32C9 variant
B45: 32C9PMP1_G11 (VHH, name in Kabat numbering)
VHH: B1 VHH with P14A, E44G, R72S, K87R, A88P, R98A
notes: Humanized 32C9 variant
B46: 32C9PMP2_B3 (VHH, name in Kabat numbering)
VHH: B1 VHH with P14A, R98A
notes: Humanized 32C9 variant
B47: 32C9PMP2_A2 (VHH, name in Kabat numbering)
VHH: B1 VHH with E44G, V79L, R98A, L122Q
notes: Humanized 32C9 variant
B48: 32C9PMP1_F8 (VHH, name in Kabat numbering)
VHH: B1 VHH with P14A, G47W, R72S, V79L, R98A
notes: Humanized 32C9 variant
B49: 32C9PMP2_B11 (VHH, name in Kabat numbering)
VHH: B1 VHH with P14A, S30D, F37V, G47W, R72S, V79L, K87R, A88P, R98A, L122Q
notes: Humanized 32C9 variant

The first experiment deals with T1, human IL6R. Kind of experiment: SPR (Biacore), periplasmic extract. A general note: SPR reads the build-up and loss of mass on a sensor chip optically.
As for B1, the binding result was “no binding”.

Turning to B2, the binding result is reported as “no binding”. Same read-out and setting: then B3, with “no binding”. Still for that read-out and setting: the entry for B4 is “no binding”; for B5 it is “no binding”. On the same count and under the same terms, the entry for B6 is “no binding”; for B7 it is “no binding”. Take B8: the binding result is “no binding”. As to B9, the binding result is reported as “no binding”. Regarding B10, the binding result is on record as “no binding”. On to B11, for which the binding result is on record as “no binding”.

For B12, the binding result is “no binding”.

On to B13, for which the binding result is “no binding”. On the same count and under the same terms, the entry for B14 is “no binding”; for B15 it is “no binding”. Turning to B16, the binding result is given as “no binding”. Same read-out and setting: then B17, with “no binding”; and B18, with “no binding”. Consider B19, for which the binding result is listed as “no binding”.

In the case of B20, the binding result is recorded as “no binding”.

With B21, the binding result is “no binding”. B22: the binding result is on record as “no binding”.

For a further experiment, the target named is T1, human IL6R. Kind of experiment: SPR (Biacore), periplasmic extract. This is another data set of the same source. Here is the method: The oligos were dissolved in H₂O and subsequently pooled at a final concentration of 0.4 uM for each oligo. 5 and 1 ul of this mixture was used for assembly PCR in a 50 ul reaction volume. Full-length product was purified using the Qiagen PCR purification kit. The purified PCR product was then digested with SfiI and BsteEII and ligated into the corresponding sites of expression vector pAX51. E. coli TG1 cells were transformed with 2 ul of ligation mixture and plated on LB agar+100 ug/ml ampicillin+2% glucose. Plates were incubated overnight at 37° C. Individual colonies were picked and grown overnight in 2×YT+100 ug/ml ampicillin+2% glucose. Cloned Nanobody genes were amplified directly from these cultures with M13 forward and reverse primers. PCR products were purified and subsequently sequenced. In parallel the same panel of Nanobodies was expressed at 1 ml scale for 4 hours at 37° C. Periplasmic extracts were prepared and without further purification analyzed on Biacore for their ability to bind human IL6R.
Usually koff stands for the rate constant with which the complex falls apart. Higher therefore signals fast dissociation. For the molecule B23, the koff was 0.00515 s⁻¹. Same read-out and setting: then B24, with 0.0029 s⁻¹.

Consider B25, for which the koff turned out to be 0.00426 s⁻¹. This koff and that of the molecule before are within 1.5-fold of each other. On the same count and under the same terms, the figure for B26 is 0.00121 s⁻¹.

B27 displayed a koff of 0.000187 s⁻¹. On the same count and under the same terms, the figure for B28 is 0.00346 s⁻¹. On to B29, for which the koff is 0.0052 s⁻¹. As to B30, the koff worked out at 0.000205 s⁻¹. On the same count and under the same terms, then B31, with 0.000584 s⁻¹. B32 returned a dissociation rate constant (koff) of 0.00166 s⁻¹. Compared with the last molecule, the koff is about 2.8-fold higher.

Take B33: the off-rate constant (koff) worked out at 0.00196 s⁻¹. In turn, B34 registered a koff of 0.0007 s⁻¹. For B35, the koff came to 0.0138 s⁻¹. This koff is about 20-fold higher than that of the molecule before. In turn, B36 displayed a koff of 0.00116 s⁻¹.

For the molecule B37, the koff worked out at 0.000804 s⁻¹. In turn, B38 registered a koff of 0.000792 s⁻¹. This koff and that of the molecule before are within 1.5-fold of each other. In turn, B39 registered a koff of 0.00707 s⁻¹. On to B40, for which the koff amounted to 0.000196 s⁻¹. As for B41, the koff came to 0.000803 s⁻¹.

Regarding B42, the koff was determined as 0.000982 s⁻¹. In the case of B43, the off-rate constant (koff) was 0.00564 s⁻¹. On to B44, for which the koff came to 0.000187 s⁻¹. Still for that read-out and setting: the figure for B45 is 0.000204 s⁻¹. B46 had a koff of 0.000308 s⁻¹. The same measure, in the same setting: the figure for B47 is 0.000192 s⁻¹; for B48 it is 0.00189 s⁻¹; for B49 it is 0.00768 s⁻¹.
